# According to paper doi:10.1101/2025.05.28.656462 (bioRxiv, 2025):
# Target: the molecule itself
# Assay: SEC
protein,measurement,value
"full-length Pseudomonas aeruginosa bacteriophytochrome PaBphP, wild type (FL-PaBphP-D) (natural protein) MTSITPVTLANCEDEPIHVPGAIQPHGALVTLRADGMVLAASENIQALLGFVASPGSYLTQEQVGPEVLRMLEEGLTGNGPWSNSVETRIGEHLFDVIGHSYKEVFYLEFEIRTADTLSITSFTLNAQRIIAQVQLHNDTASLLSNVTDELRRMTGYDRVMAYRFRHDDSGEVVAESRREDLESYLGQRYPASDIPAQARRLYIQNPIRLIADVAYTPMRVFPALNPETNESFDLSYSVLRSVSPIHCEYLTNMGVRASMSISIVVGGKLWGLFSCHHMSPKLIPYPVRMSFQIFSQVCSAIVERLEQGRIAELLRVSTERRLALARRARDADDLFGALAHPDDGIAALIPCDGALVMLGGRTLSIRGDFERQAGNVLQRLQRDPERDIYHTDNWPQPSEDSPDGGDCCGVLAIRFHRQESGWIFWFRHEEVHRIRWGGKPEKLLTIGPSGPRLTPRGSFEAWEEVVRGHSTPWSETDLAIAEKLRLDLMELCLNHAAEVDRMRQRLIAVLGHDLRNPLQSISMAAALLSSSDTRTTELRQHISASSSRMERLVSQILDMSRLQSGIGLTVNPVDTDVSQLVRQIVCETDVAYPGLVIEIAIDPQVRAVVDPDRYAQVAANLLSNARHHGLPGRPVLVTLTRQGDEVCLSVLNETSGLSEAQLANLFEPFKRESADNQRNRNGLGIGLYISQAIAQAHQGRIDVDCRDDVITFCLRLPVRQAETGSSS",stoichiometry N,2
